Drawing on patent US12448423 (Xencor, dated 2025), this text covers Kd, koff and kon for 19 molecules.

Experiment [1] has as its target T1, HIS-tagged human NKG2D (human, UniProt P26718 73-216, limits assumed).
T1 construct: Captured on HIS1K biosensors; not shown: HIS tag
T1 sequence (looked up): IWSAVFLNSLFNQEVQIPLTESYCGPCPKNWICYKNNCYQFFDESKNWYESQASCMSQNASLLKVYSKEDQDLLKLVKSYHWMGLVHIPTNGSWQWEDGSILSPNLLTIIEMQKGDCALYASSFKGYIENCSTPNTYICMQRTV
The experiment can be described thus: Octet (BLI): His-tagged human NKG2D captured on HIS1K biosensors, dipped into 100 nM bivalent mAb. Background: In BLI a coated tip is dipped into the sample, and binding shifts an interference pattern.

Experiment [2] concerns the target T2, cynomolgus CD8 (captured on the Octet biosensor) (cynomolgus).
T2 construct: Construct not described; also called cyno CD8; cyno CD8a
The experiment can be described thus: Octet (BLI); cynomolgus CD8 captured, dipped into multiple concentrations of the one-arm mAb.

Changes are numbered by the printed parent chain. Names and notes keep the numbering of the source.

B1: XENP27607 (antibody, human IgG1, kappa, V domains shown)
VH: EVQLVESGGGLVQPGGSLRLSCAVSGFSLTIYGVHWVRQAPGKGLEWVSVIWSGGSTDYNAKVKGRFTISKDNSKRTVYLQMNSLRAEDTAVYYCSRKSHDGYYGVMDYWGQGTTVTVSS
VL: DIQLTQSPDFQSVTPKEKVTITCRASQSIGTSIHWYQQKPDQSPKLLIKYASESISGIPSRFSGSGSGTDFTLTINSLEAEDAATYYCQQSNTWPLTFGAGTKVEIKR
notes: humanized bivalent anti-NKG2D mAb, IgG1 with ablation variants; also called mAb C[NKG2D]_H1L1_IgG1_PVA_/S267K
In experiment [1], B1 showed a Kd of 0.506 nM, an off-rate (koff) of 0.000357 s⁻¹ and a kon of 706000 M⁻¹ s⁻¹.

B2: XENP27609 (antibody, human IgG1, kappa, V domains shown)
VH: QVQLVQSGAEVKKPGASVKVSCKVSGFSLTIYGVHWVRQAPGQGLEWMGVIWSGGSTDYNAKFQGRVTMTKDNSKRTVYMELSSLRSEDTAVYYCSRKSHDGYYGVMDYWGQGTTVTVSS
VL: B1 VL
notes: humanized bivalent anti-NKG2D mAb, IgG1 with ablation variants; also called mAb C[NKG2D]_H2L1_IgG1_PVA_/S267K
Regarding B2, in experiment [1], the Kd came out at 0.167 nM, the off-rate (koff) came out at 8.64e-05 s⁻¹ and the on-rate (kon) stood at 518000 M⁻¹ s⁻¹.

B3: XENP27608 (antibody, human IgG1, kappa, V domains shown)
VH: B1 VH
VL: DIQLTQSPSSLSASVGDRVTITCRASQSIGTSIHWYQQKPGKSPKLLIKYASESISGIPSRFSGSGSGTDFTLTISSLQPEDFATYYCQQSNTWPLTFGAGTKVEIKR
notes: humanized bivalent anti-NKG2D mAb, IgG1 with ablation variants; also called mAb C[NKG2D]_H1L2_IgG1_PVA_/S267K
In experiment [1], B3 came in with a Kd of 0.371 nM, a koff of 0.000308 s⁻¹ and a kon of 832000 M⁻¹ s⁻¹.

B4: XENP27610 (antibody, human IgG1, kappa, V domains shown)
VH: B2 VH
VL: B3 VL
notes: humanized bivalent anti-NKG2D mAb, IgG1 with ablation variants; also called mAb C[NKG2D]_H2L2_IgG1_PVA_/S267K
In experiment [1], B4 came in with a Kd of 0.199 nM, a dissociation rate constant (koff) of 0.000145 s⁻¹ and a kon of 727000 M⁻¹ s⁻¹.

B5: XENP26009 (antibody, V domains shown)
VH: QVQLVQSGAEVKKPGASVKVSCKASGFNIKDTYIHWVRQAPGKGLEWMGRIDPDNGETLYASKFQGRVTITADTSINTAYMELSRLRSDDTAVYYCGRGYGYYVFDHWGQGTTVTVSS
VL: AIKMTQSPSSLSASVGDRVTITCRTSRSISKYLAWYQEKPGKTNKLLIYSGSTLQSGIPSRFSGSGSGTDFTLTISSLQPEDFATYYCQQHNENPLTFGAGTKLEIK
notes: also called OKT8_H2.152_L1.103 one-arm mAb
Regarding B5, in experiment [2], the Kd worked out at 77.6 nM, the off-rate (koff) was 0.00909 s⁻¹ and the on-rate constant (kon) came out at 117000 M⁻¹ s⁻¹.

B6: XENP26233 (antibody, V domains shown)
VH: B5 VH with Y100W
VL: B5 VL
notes: also called OKT8_H2.156_L1.103 one-arm mAb
Consider B6, for which, in experiment [2], the Kd worked out at 66.6 nM, the koff worked out at 0.0133 s⁻¹ and the kon was 200000 M⁻¹ s⁻¹.

B7: XENP26230 (antibody, V domains shown)
VH: B5 VH with I70M
VL: B5 VL
notes: also called OKT8_H2.153_L1.103 one-arm mAb
B7: in experiment [2], the Kd worked out at 39.2 nM, the koff is 0.00967 s⁻¹ and the kon amounted to 247000 M⁻¹ s⁻¹.

B8: XENP26236 (antibody, V domains shown)
VH: B5 VH with I70M, Y100W
VL: B5 VL
notes: also called OKT8_H2.159_L1.103 one-arm mAb
As to B8, in experiment [2], the Kd was 55.1 nM, the dissociation rate constant (koff) is 0.00672 s⁻¹ and the on-rate constant (kon) came out at 122000 M⁻¹ s⁻¹.

B9: XENP26237 (antibody, V domains shown)
VH: B5 VH with G56D, I70M
VL: B5 VL
notes: also called OKT8_H2.160_L1.103 one-arm mAb
Regarding B9, in experiment [2], the Kd was 67.4 nM, the off-rate (koff) is 0.00767 s⁻¹ and the kon came to 114000 M⁻¹ s⁻¹.

B10: XENP26232 (antibody, V domains shown)
VH: B5 VH with V104Y
VL: B5 VL
notes: also called OKT8_H2.155_L1.103 one-arm mAb
On to B10, for which, in experiment [2], the Kd turned out to be 35.7 nM, the off-rate (koff) was found to be 0.0114 s⁻¹ and the on-rate (kon) was found to be 319000 M⁻¹ s⁻¹.

B11: XENP26239 (antibody, V domains shown)
VH: B5 VH with G56D, V104Y
VL: B5 VL
notes: also called OKT8_H2.162_L1.103 one-arm mAb
Turning to B11, in experiment [2], the Kd came out at 66.6 nM, the koff was found to be 0.00882 s⁻¹ and the association rate constant (kon) is 133000 M⁻¹ s⁻¹.

B12: XENP26240 (antibody, V domains shown)
VH: B5 VH with G56D, Y100W
VL: B5 VL
notes: also called OKT8_H2.163_L1.103 one-arm mAb
In experiment [2], B12 came in with a Kd of 75.4 nM, an off-rate constant (koff) of 0.0225 s⁻¹ and an on-rate (kon) of 298000 M⁻¹ s⁻¹.

B13: XENP26019 (antibody, V domains shown)
VH: B5 VH
VL: B5 VL with K31I, S50K, H91A
notes: also called OKT8_H2.152_L1.113 one-arm mAb
In experiment [2], B13 returned a Kd of 80.7 nM, a koff of 0.00962 s⁻¹ and a kon of 119000 M⁻¹ s⁻¹.

B14: XENP27601 (antibody, human IgG1, kappa, V domains shown)
VH: EVQLVQSGAEVKKPGESLRISCKASGYTFTSYWMNWVRQMPGKGLEWMGRIDPYDSETHYNPSFQGHVTISVDKSISTAYLQWSSLKASDTAMYYCAKMGDYSFDYWGQGTLVTVSS
VL: DIQLTQSPSSLSASVGDRVTITCRASGNIHNYLAWYQQKPGKSPKVLVYNAKTLADGVPSRFSGSGSGTDYTLTISSLQPEDFATYYCQHFWSTTWTFGGGTKVEIKR
notes: humanized bivalent anti-NKG2D mAb, IgG1 with ablation variants; also called mAb B[NKG2D]_H2L1_IgG1_PVA_/S267K
In experiment [1], B14 yielded a Kd of 0.894 nM, a koff of 0.0011 s⁻¹ and a kon of 1.23e+06 M⁻¹ s⁻¹.

B15: XENP27604 (antibody, human IgG1, kappa, V domains shown)
VH: EVQLVESGGGLVQPGGSLRLSCAASGYTFTSYWMNWVRQAPGKGLVWVSRIDPYDSETHYNQKVKGRFTISVDKAKSTAYLQMNSLRAEDTAVYYCAKMGDYSFDYWGQGTLVTVSS
VL: B14 VL
notes: humanized bivalent anti-NKG2D mAb, IgG1 with ablation variants; also called mAb B[NKG2D]_H3L1_IgG1_PVA_/S267K
For the molecule B15, in experiment [1], the Kd amounted to 1.01 nM, the off-rate constant (koff) stood at 0.00194 s⁻¹ and the kon stood at 1.91e+06 M⁻¹ s⁻¹.

B16: XENP27603 (antibody, human IgG1, kappa, V domains shown)
VH: B14 VH
VL: DIQLTQSPDSLAVSLGERATINCKASGNIHNYLAWYQQKPGQSPKVLVYNAKTLADGVPSRFSGSGSGTDYTLTISSLQAEDVAVYYCQHFWSTTWTFGGGTKVEIKR
notes: humanized bivalent anti-NKG2D mAb, IgG1 with ablation variants; also called mAb B[NKG2D]_H2L2_IgG1_PVA_/S267K
In experiment [1], B16 had a Kd of 0.703 nM, a dissociation rate constant (koff) of 0.00121 s⁻¹ and a kon of 1.73e+06 M⁻¹ s⁻¹.

B17: XENP27602 (antibody, human IgG1, kappa, V domains shown)
VH: B14 VH
VL: B14 VL with T95P
notes: humanized bivalent anti-NKG2D mAb, IgG1 with ablation variants; also called mAb B[NKG2D]_H2_L1.1_IgG1_PVA_/S267K
In experiment [1], B17 had a Kd of 1.95 nM, a dissociation rate constant (koff) of 0.00144 s⁻¹ and a kon of 740000 M⁻¹ s⁻¹.

B18: XENP27606 (antibody, human IgG1, kappa, V domains shown)
VH: B15 VH
VL: B16 VL
notes: humanized bivalent anti-NKG2D mAb, IgG1 with ablation variants; also called mAb B[NKG2D]_H3L2_IgG1_PVA_/S267K
In experiment [1], B18 displayed a Kd of 1.15 nM, a koff of 0.00204 s⁻¹ and an on-rate (kon) of 1.77e+06 M⁻¹ s⁻¹.

B19: XENP27605 (antibody, human IgG1, kappa, V domains shown)
VH: B15 VH
VL: B14 VL with T95P
notes: humanized bivalent anti-NKG2D mAb, IgG1 with ablation variants; also called mAb B[NKG2D]_H3_L1.1_IgG1_PVA_/S267K
In experiment [1], B19 returned a Kd of 3.28 nM, a koff of 0.00943 s⁻¹ and an on-rate constant (kon) of 2.88e+06 M⁻¹ s⁻¹.

One may read the koff as the rate constant with which the complex falls apart. Usually kon stands for the second-order rate constant of association. Read a low kon as slower complex formation.
